Our source for the Kd values is the supplement of paper PMC6379048.

Holding throughout (experiment): Kd (EC50 corrected by depletion factor)
One data set has as its target T1, CELF1 (UniProt Q92879).
T1 sequence: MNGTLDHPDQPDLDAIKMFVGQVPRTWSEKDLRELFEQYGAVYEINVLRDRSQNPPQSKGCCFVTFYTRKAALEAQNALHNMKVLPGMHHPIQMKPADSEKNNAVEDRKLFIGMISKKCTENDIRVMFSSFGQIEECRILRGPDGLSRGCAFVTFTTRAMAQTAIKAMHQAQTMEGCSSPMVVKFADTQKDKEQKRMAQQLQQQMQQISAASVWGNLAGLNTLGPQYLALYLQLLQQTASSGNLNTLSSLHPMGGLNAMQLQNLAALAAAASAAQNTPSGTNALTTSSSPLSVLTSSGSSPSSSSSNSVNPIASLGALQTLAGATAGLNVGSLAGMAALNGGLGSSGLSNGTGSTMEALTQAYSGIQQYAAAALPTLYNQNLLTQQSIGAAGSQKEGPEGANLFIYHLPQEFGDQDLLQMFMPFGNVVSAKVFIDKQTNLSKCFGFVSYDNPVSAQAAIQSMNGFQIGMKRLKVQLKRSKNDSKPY
On the procedure:
(§1)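 Competition-binding assay: HEK293-FT cell lysate (2.5 mg protein) pre-incubated 1 h at 4°C with free motif-containing RNA oligos (0 to 30 µM, 12 doses), then pulled down with the same 5'-amino-C6 RNA oligos immobilised on NHS-Sepharose beads (30 min, 4°C). Bound proteins were quantified by label-free LC-MS/MS and normalised to the water control. EC50 came from a four-parameter log-logistic fit; Kd = EC50 x depletion factor. Random/reversed control probes are dropped.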

The target in the next data set is DHX15 (UniProt O43143). As to the method:
as §1

The target in another data set is T2, DHX36 (UniProt Q9H2U1).
T2 sequence: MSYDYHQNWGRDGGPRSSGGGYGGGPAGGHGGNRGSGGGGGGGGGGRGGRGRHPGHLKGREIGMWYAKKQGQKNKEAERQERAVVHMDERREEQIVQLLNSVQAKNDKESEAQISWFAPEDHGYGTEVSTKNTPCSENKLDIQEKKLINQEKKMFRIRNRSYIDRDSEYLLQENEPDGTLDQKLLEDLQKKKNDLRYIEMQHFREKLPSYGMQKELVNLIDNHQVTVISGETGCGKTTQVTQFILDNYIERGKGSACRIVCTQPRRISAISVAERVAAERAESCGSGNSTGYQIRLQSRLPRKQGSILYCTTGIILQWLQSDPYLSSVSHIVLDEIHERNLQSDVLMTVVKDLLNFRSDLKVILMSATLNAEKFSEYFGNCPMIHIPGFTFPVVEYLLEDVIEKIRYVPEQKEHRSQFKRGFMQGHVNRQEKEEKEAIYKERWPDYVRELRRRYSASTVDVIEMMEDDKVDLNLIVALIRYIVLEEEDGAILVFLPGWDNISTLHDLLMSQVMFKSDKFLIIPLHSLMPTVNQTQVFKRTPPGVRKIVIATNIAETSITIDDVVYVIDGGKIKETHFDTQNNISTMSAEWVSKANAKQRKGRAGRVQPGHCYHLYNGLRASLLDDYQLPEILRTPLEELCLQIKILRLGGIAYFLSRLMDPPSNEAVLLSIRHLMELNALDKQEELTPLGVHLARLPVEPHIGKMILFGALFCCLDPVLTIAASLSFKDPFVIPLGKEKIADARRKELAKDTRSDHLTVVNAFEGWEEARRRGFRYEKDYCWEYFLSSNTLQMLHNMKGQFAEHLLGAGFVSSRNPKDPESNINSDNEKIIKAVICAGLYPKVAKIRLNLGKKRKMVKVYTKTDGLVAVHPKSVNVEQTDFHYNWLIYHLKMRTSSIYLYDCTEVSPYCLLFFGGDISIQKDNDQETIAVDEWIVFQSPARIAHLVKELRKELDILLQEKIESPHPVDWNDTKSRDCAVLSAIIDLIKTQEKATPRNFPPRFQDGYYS
On the procedure:
as §1

The next data set concerns the target T3, NKRF (UniProt O15226).
T3 sequence: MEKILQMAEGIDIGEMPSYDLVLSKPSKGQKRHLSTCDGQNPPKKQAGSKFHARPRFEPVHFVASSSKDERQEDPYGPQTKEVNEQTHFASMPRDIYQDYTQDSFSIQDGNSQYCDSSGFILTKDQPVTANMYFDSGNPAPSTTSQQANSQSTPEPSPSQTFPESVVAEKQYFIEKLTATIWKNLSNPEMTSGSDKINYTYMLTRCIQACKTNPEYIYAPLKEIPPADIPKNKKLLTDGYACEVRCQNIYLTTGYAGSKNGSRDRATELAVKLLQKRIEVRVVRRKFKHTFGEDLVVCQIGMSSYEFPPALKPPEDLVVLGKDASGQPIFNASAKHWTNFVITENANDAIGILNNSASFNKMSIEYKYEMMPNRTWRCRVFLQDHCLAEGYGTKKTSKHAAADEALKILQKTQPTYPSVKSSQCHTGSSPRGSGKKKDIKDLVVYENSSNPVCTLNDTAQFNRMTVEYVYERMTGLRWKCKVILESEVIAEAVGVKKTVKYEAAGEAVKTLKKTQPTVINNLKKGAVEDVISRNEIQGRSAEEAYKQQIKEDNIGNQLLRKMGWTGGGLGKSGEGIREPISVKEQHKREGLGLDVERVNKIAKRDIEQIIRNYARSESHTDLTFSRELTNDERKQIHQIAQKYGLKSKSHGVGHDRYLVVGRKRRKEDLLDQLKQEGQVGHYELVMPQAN
As to the method: as §1

The target of the next data set is T4, SSB (UniProt P05455).
T4 sequence: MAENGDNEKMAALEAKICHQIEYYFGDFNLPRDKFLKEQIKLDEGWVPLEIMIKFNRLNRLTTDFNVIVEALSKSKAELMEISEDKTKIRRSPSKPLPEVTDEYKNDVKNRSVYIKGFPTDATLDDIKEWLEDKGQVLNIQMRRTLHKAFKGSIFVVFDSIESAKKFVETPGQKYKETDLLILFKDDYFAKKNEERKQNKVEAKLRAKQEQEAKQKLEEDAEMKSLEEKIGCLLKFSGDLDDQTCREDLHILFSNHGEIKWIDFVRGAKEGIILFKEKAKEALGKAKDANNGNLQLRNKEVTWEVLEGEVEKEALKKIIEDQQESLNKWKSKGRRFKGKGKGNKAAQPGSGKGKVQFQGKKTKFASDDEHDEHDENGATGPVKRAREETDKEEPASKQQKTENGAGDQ
On the procedure: as §1

Sequence of DHX15 (O43143 whole entry): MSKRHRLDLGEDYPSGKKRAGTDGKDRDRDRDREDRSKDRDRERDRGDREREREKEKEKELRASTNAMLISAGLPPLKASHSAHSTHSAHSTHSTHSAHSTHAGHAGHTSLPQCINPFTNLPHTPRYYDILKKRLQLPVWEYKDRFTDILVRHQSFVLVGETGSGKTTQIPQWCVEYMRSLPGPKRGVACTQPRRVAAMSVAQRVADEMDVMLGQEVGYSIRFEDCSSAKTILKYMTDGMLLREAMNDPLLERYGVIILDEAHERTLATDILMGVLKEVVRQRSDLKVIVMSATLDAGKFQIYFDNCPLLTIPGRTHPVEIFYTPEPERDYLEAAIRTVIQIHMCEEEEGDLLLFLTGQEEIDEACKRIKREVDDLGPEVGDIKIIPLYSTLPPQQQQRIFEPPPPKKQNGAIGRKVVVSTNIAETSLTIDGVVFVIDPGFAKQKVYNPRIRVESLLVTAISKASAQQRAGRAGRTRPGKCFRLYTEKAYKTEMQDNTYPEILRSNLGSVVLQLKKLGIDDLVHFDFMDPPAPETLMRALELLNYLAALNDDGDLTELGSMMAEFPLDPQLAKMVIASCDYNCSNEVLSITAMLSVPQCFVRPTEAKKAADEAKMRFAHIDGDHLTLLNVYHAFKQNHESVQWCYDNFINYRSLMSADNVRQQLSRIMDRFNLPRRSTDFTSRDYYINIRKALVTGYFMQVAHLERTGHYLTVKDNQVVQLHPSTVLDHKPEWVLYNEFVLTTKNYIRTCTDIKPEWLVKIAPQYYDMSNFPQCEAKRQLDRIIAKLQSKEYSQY

Turning to AAUAAA, the Kd with CELF1 came to 0.162 µM; with DHX15, 0.446 µM; in the data set with DHX36, 0.573 µM; with NKRF, 0.222 µM; with SSB, 0.365 µM.
For CUGUCCU, in that order: 3.66 µM, 0.358 µM, 1.85 µM, 0.298 µM and 1.06 µM.
For UAUUUAU, the dissociation constant Kd was determined as 0.35 µM in the data set with CELF1; 0.157 µM with DHX15; 0.632 µM with DHX36; 0.223 µM with NKRF; 0.289 µM with SSB.

By Kd is commonly meant the free concentration of one partner at which half of the binding sites on the other are occupied at equilibrium, for simple one-to-one binding. The low end stands for higher affinity, the high end for lower affinity.
